# Assay results published in US20240067758A1 (UCB, published 2024).
# Where “and” joins values, the source holds several entries; their conditions need not be identical. Equal values may be shown once.
# T1: Human IL22 (human, UniProt Q9GZX6 34-179)
# T1 construct: IL22 of the Biacore and cell assays
# T1 sequence: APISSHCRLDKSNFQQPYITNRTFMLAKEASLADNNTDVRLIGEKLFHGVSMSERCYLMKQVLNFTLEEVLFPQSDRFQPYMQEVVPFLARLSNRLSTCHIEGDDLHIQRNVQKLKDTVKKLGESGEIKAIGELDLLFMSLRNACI
# T2: Cynomolgus IL22 (cynomolgus, UniProt G7PHZ7 34-179)
# T2 construct: also called Cyno IL22; Cyno IL-22
# T2 sequence: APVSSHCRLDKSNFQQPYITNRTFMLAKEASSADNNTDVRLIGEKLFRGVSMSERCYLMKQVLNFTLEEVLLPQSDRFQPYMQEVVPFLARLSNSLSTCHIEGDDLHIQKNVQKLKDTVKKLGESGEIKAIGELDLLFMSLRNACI
# T3: Mouse IL22 (mouse, UniProt Q9JJY9 34-179)
# T3 sequence (looked up): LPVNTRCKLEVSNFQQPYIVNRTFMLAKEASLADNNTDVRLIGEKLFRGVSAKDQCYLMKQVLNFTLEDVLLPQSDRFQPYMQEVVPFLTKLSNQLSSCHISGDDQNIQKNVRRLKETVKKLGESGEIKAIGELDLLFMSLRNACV
# Tests used:
# [1] = molecular target: T1, Human IL22; test: SPR Biacore T200; mean KD
# Experimental: BIA (Biomolecular Interaction Analysis) was performed using T200 (GE Healthcare). Affinipure IgG-F(ab′)₂ Fragment goat anti-human IgG, F(ab′)₂ fragment specific (Jackson ImmunoResearch) was immobilized on a CM5 Sensor Chip via amine coupling chemistry to a capture level of ˜5000 response units (RUs). HBS-EP+buffer (10 mM HEPES pH 7.4, 0.15 M NaCl, 3 mM EDTA, 0.05% Surfactant P20, GE Healthcare) was used as the running buffer with a flow rate of 10 μL/min.
# The surface was generated by 2×10 μL injections of 50 mM HCl, interspersed by a 10 μL injection of 5 mM NaOH at flowrate of 10 μL/min. Background subtraction binding curves were analyzed using the T200 evaluation software (version 3.0) following standard procedures. Kinetic parameters were determined from the fitting algorithm.
# [2] = molecular target: T4, Human IL13 (human, UniProt P35225 35-146, limits assumed); test: cell-based or functional assay
# [3] = molecular target: T1, Human IL22; test: cell-based or functional assay
# [4] = molecular target: T4, Human IL13; test: cell-based or functional assay; remark: listed apart in the source
# [5] = molecular target: T1, Human IL22; test: cell-based or functional assay; remark: listed apart in the source
# [6] = molecular target: T4, Human IL13; test: cell-based or functional assay; remark: listed apart in the source
# [7] = molecular target: T4, Human IL13; test: cell-based or functional assay; remark: listed apart in the source
# [8] = molecular target: T1, Human IL22; test: cell-based or functional assay; remark: listed apart in the source
# [9] = molecular target: T1, Human IL22; test: cell-based or functional assay; remark: listed apart in the source
# [10] = molecular target: T4, Human IL13; test: cell-based or functional assay; remark: listed apart in the source
# [11] = molecular target: T1, Human IL22; test: SPR (Biacore); human IL22
# [12] = molecular target: T1, Human IL22; test: SPR Biacore 8K; Fab captured on anti-human F(ab')2, human IL22 titrated 617 pM-50 nM; single experiment
# Experimental: The assay was run on Biacore 8K instrument (GE Healthcare) and BIA (Biomolecular Interaction Analysis) was performed using Biacore 8000 evaluation software Affinipure Goat anti-human IgG-F(ab′)2 fragment specific (Jackson ImmunoResearch) was immobilized on a CM5 Sensor Chip via amine coupling chemistry to a capture level of ˜5000 response units (RUs). HBS-EP+ buffer (10 mM HEPES pH 7.4, 0.15 M NaCl, 3 mM EDTA, 0.05% Surfactant P20, GE Healthcare) was used as the running buffer with a flow rate of 10 μL/min.
# The surface was generated by 2×10 μL injections of 50 mM HCl, interspersed by a 5 μL injection of 5 mM NaOH at flowrate of 10 μL/min. Background subtraction binding curves were analyzed using the Insight evaluation software following standard procedures. Kinetic parameters were determined from the fitting algorithm.
# [13] = molecular target: T1, Human IL22; test: SPR (Biacore); Fab variant, human IL22
# [14] = molecular target: T1, Human IL22; test: SPR
# [15] = molecular target: T1, Human IL22; test: SPR Biacore T200; Fab captured on anti-rabbit F(ab')2, IL22 titrated 0.6-50 nM
# Experimental: (§1) HBS-EP+ buffer (10 mM HEPES pH 7.4, 0.15 M NaCl, 3 mM EDTA, 0.05% Surfactant P20, GE Healthcare) was used as the running buffer with a flow rate of 10 μL/min.
# (§2) The surface was generated by 2×10 μL injection of 50 mM HCl, interspersed by a 10 μL injection of 5 mM NaOH at flowrate of 10 μL/min. Background subtraction binding curves were analyzed using the Biacore T200 evaluation software following standard procedures. Kinetic parameters were determined from the fitting algorithm.
# [16] = molecular target: T2, Cynomolgus IL22; test: as above
# Experimental: as §1, §2
# [17] = molecular target: T3, Mouse IL22; test: as above
# Experimental: as §1, §2
# [18] = molecular target: T1, Human IL22; test: SPR (Biacore); human IL22; remark: listed apart in the source
binder,measurement,setting,value
TrYbe molecule with 11070 gL7gH16 IL22 domain (other) VL: DIQMTQSPSSVSASVGDRVTITCKASKTISKYLAWYQQKPGKANKLLIYSGSTLQSGVPSRFSGSGSGTDFTLTISSLQPEDFATYYCQQHNEYPLTFGQGTKLEIK VH: EVQLQESGPGLVKPSQTLSLTCTVSGFSLTSYSVHWVRQHPGKGLEWIGRMWSDGDTSYNTAFTSRLTISRDTSKNQVSLKLSSVTAADTAVYYCARSLDFYYDTTLAFWGQGTTVTVSS,Kd,[1],< 0.1 nM
"IL13H/IL22K knob in hole bispecific (bispecific antibody, human IgG4 S228P, kappa) heavy 1: not shown light 1: AVQLTQSPSSLSASVGDRVTITCQASEDIYTNLAWYQQKPGKAPKLLIYWASTLASGVPSRFSGSGSGTDFTLTISSLQPEDFATYYCQASVYGNAADSRYTFGGGTKVEIKRTVAAPSVFIFPPSDEQLKSGTASVVCLLNNFYPREAKVQWKVDNALQSGNSQESVTEQDSKDSTYSLSSTLTLSKADYEKHKVYACEVTHQGLSSPVTKSFNRGEC heavy 2: EVQLVQSGAEVKKPGSSVKVSCKASGYSFTSYYIHWVRQAPGQGLEWMGRIGPGSGDINYNEKFKGRATFTVDKSTSTAYMELSSLRSEDTAVYYCARFHYDGADWGQGTLVTVSSASTKGPSVFPLAPCSRSTSESTAALGCLVKDYFPEPVTVSWNSGALTSGVHTFPAVLQSSGLYSLSSVVTVPSSSLGTKTYTCNVDHKPSNTKVDKRVESKYGPPCPPCPAPEFLGGPSVFLFPPKPKDTLMISRTPEVTCVVVDVSQEDPEVQFNWYVDGVEVHNAKTKPREEQFNSTYRVVSVLTVLHQDWLNGKEYKCKVSNKGLPSSIEKTISKAKGQPREPQVYTLPPSQEEMTKNQVSLSCAVKGFYPSDIAVEWESNGQPENNYKTTPPVLDSDGSFFLVSRLTVDKSRWQEGNVFSCSVMHEALHNHYTQKSLSLSLGK light 2: DIQMTQSPSSLSASVGDRVTITCKASQNINENLDWYQQKPGKAPKLLIYYTDILQTGIPSRFSGSGSGTDYTLTISSLQPEDFATYYCYQYYSGYTFGQGTKLEIKRTVAAPSVFIFPPSDEQLKSGTASVVCLLNNFYPREAKVQWKVDNALQSGNSQESVTEQDSKDSTYSLSSTLTLSKADYEKHKVYACEVTHQGLSSPVTKSFNRGEC","IC50 (pM) Geomean, N = 2; STAT-6 reporter assay, HEK-Blue IL-4/IL13 cells; PB8842",[2],4.9 pM
same,"IC50 (pM), concatenated IC50 values; STAT-6 reporter assay; PB8842",[2],4.6 pM and 5.2 pM
same,"IC50 (M) Geomean; IL22-induced IL-10 release, COLO205 cells; PB8842 (N = 2)",[3],7.13e-11 M
same,"IC50 (read off the curve), inhibition of eotaxin-3 secretion, primary human keratinocytes stimulated with IL-13 and IL-22 at 100 ng/ml",[4],~0.8 nM
same,"IC50 (M) Geomean; IL22-induced IL-10 release, COLO205 cells; PB8919 (N = 2)",[5],5.73e-11 M
same,"IC50 (pM) Geomean, N = 2; STAT-6 reporter assay, HEK-Blue IL-4/IL13 cells; PB8919",[6],2.3 pM
same,"IC50 (pM), concatenated IC50 values; STAT-6 reporter assay; PB8919",[6],2 pM and 2.7 pM
"IL13K/IL22H knob in hole bispecific (bispecific antibody, human IgG4 S228P, kappa) heavy 1: not shown light 1: DIQMTQSPSSLSASVGDRVTITCKASQNINENLDWYQQKPGKAPKLLIYYTDILQTGIPSRFSGSGSGTDYTLTISSLQPEDFATYYCYQYYSGYTFGQGTKLEIKRTVAAPSVFIFPPSDEQLKSGTASVVCLLNNFYPREAKVQWKVDNALQSGNSQESVTEQDSKDSTYSLSSTLTLSKADYEKHKVYACEVTHQGLSSPVTKSFNRGEC heavy 2: EVQLVESGGGLVQPGGSLRLSCAVSGFSLSSYAMIWVRQAPGKGLEWIGIIDIEGSTYYASWAKGRFTISRDNSKNTVYLQMNSLRAEDTAVYYCARDRFVGVDIFDPWGQGTLVTVSSASTKGPSVFPLAPCSRSTSESTAALGCLVKDYFPEPVTVSWNSGALTSGVHTFPAVLQSSGLYSLSSVVTVPSSSLGTKTYTCNVDHKPSNTKVDKRVESKYGPPCPPCPAPEFLGGPSVFLFPPKPKDTLMISRTPEVTCVVVDVSQEDPEVQFNWYVDGVEVHNAKTKPREEQFNSTYRVVSVLTVLHQDWLNGKEYKCKVSNKGLPSSIEKTISKAKGQPREPQVYTLPPSQEEMTKNQVSLSCAVKGFYPSDIAVEWESNGQPENNYKTTPPVLDSDGSFFLVSRLTVDKSRWQEGNVFSCSVMHEALHNHYTQKSLSLSLGK light 2: AVQLTQSPSSLSASVGDRVTITCQASEDIYTNLAWYQQKPGKAPKLLIYWASTLASGVPSRFSGSGSGTDFTLTISSLQPEDFATYYCQASVYGNAADSRYTFGGGTKVEIKRTVAAPSVFIFPPSDEQLKSGTASVVCLLNNFYPREAKVQWKVDNALQSGNSQESVTEQDSKDSTYSLSSTLTLSKADYEKHKVYACEVTHQGLSSPVTKSFNRGEC","IC50 (pM) Geomean, N = 2; STAT-6 reporter assay, HEK-Blue IL-4/IL13 cells; PB8920",[7],2.9 pM
same,"IC50 (pM), concatenated IC50 values; STAT-6 reporter assay; PB8920",[7],2.1 pM and 4 pM
same,"IC50 (read off the curve), inhibition of eotaxin-3 secretion, primary human keratinocytes stimulated with IL-13 and IL-22 at 100 ng/ml",[4],~5 nM
same,"IC50 (M) Geomean; IL22-induced IL-10 release, COLO205 cells; PB8841 (N = 2)",[8],6.59e-11 M
same,"IC50 (M) Geomean; IL22-induced IL-10 release, COLO205 cells; PB8920 (N = 2)",[9],6.38e-11 M
same,"IC50 (pM) Geomean, N = 2; STAT-6 reporter assay, HEK-Blue IL-4/IL13 cells; PB8841",[10],3.4 pM
"11070 (Fab, V domains shown) VH: EVQLQESGPGLVQPSQTLSPTCTVSGFSLTSYSVHWVRQHSGKSLEWMGRMWSDGDTSYNSAFTSRLSITRDTSKSQVFLKMNSLQTEDTGTYYCARSLDFYYDTTLAFWGPGTTVTVSS VL: DIVMTQTPSNLAASPGESVSINCKASKTISKYLAWYQQKPGKANKLLIYSGSTLQSGTPSRFSGSGSSTDFTLTIRNLEPEDFGLYYCQQHNEYPLTFGSGTKLEIK",Kd,[11],0.049 nM
"11041gL13gH14 Fab (Fab, V domains shown, also called 11041gL6 C91S S96A gH5 D54E) VH: EVQLVESGGGLVQPGGSLRLSCAVSGFSLSSYAMIWVRQAPGKGLEWIGIIDIEGSTYYASWAKGRFTISRDNSKNTVYLQMNSLRAEDTAVYYCARDRFVGVDIFDPWGQGTLVTVSS VL: AVQLTQSPSSLSASVGDRVTITCQASEDIYTNLAWYQQKPGKAPKLLIYWASTLASGVPSRFSGSGSGTDFTLTISSLQPEDFATYYCQASVYGNAADSRYTFGGGTKVEIKR",Kd,[12],0.0125 nM
same,kon,[12],1.01e+06 M⁻¹ s⁻¹
same,Kd,[13],0.0125 nM
"11041gL1 C91V gH1 (Fab, V domains shown, V-regions only; also called 11041gL3gH1) VH: EVQLVESGGGLVQPGGSLRLSCAVSGFSLSSYAMIWVRQAPGKGLEWIGIIDIDGSTYYASWAKGRFTISRDSSKNTVYLQMNSLRAEDTAVYYCARDRFVGVDIFDPWGQGTLVTVSS VL: AVVLTQSPSSLSASVGDRVTITCQASEDIYTNLAWYQQKPGKAPKLLIYWASTLASGVPSRFSGSGSGTDFTLTISSLQPEDFATYYCQAVVYGNSADSRYTFGGGTKVEIK",fold increase in binding affinity against 11041gL1gH1,[14],15 fold
same,Kd,[13],0.0419 nM
"11041gL1 C91S gH1 (Fab, V domains shown, V-regions only; also called 11041gL2gH1) VH: EVQLVESGGGLVQPGGSLRLSCAVSGFSLSSYAMIWVRQAPGKGLEWIGIIDIDGSTYYASWAKGRFTISRDSSKNTVYLQMNSLRAEDTAVYYCARDRFVGVDIFDPWGQGTLVTVSS VL: AVVLTQSPSSLSASVGDRVTITCQASEDIYTNLAWYQQKPGKAPKLLIYWASTLASGVPSRFSGSGSGTDFTLTISSLQPEDFATYYCQASVYGNSADSRYTFGGGTKVEIK",fold increase in binding affinity against 11041gL1gH1,[14],50 fold
same,Kd,[13],0.0124 nM
"Rabbit 11041 Fab (Fab, V domains shown, Rabbit Fab) VH: QSVEESGGRLVTPGTPLTLTCTVSGFSLSSYAMIWVRQAPGEGLEWIGIIDIDGSTYYASWAKGRFTISRTSTTVDLKITSPTTGDTATYFCARDRFVGVDIFDPWGPGTLVTVSS VL: AVVLTQTASPVSAPVGGTVTIKCQASEDIYTNLAWYQQKPGQPPKLLIYWASTLASGVPSRFKGSGSGTEFTLTISDLECADAATYYCQACVYGNSADSRYTFGGGTEVVVK",Kd,[15],0.34 nM
same,koff,[15],0.00029 s⁻¹
same,kon,[15],870000 M⁻¹ s⁻¹
same,Kd,[16],1.1 nM
same,koff,[16],0.00028 s⁻¹
same,kon,[16],260000 M⁻¹ s⁻¹
same,Kd,[17],3 nM
same,koff,[17],0.11 s⁻¹
same,kon,[17],3.7e+07 M⁻¹ s⁻¹
"11041 (parental) (Fab, V domains shown) VH: QSVEESGGRLVTPGTPLTLTCTVSGFSLSSYAMIWVRQAPGEGLEWIGIIDIDGSTYYASWAKGRFTISRTSTTVDLKITSPTTGDTATYFCARDRFVGVDIFDPWGPGTLVTVSS VL: AVVLTQTASPVSAPVGGTVTIKCQASEDIYTNLAWYQQKPGQPPKLLIYWASTLASGVPSRFKGSGSGTEFTLTISDLECADAATYYCQACVYGNSADSRYTFGGGTEVVVK",Kd,[18],0.569 nM
